Literature values, collected in US20240408194A1, “DNA ORIGAMI SUBUNIT VACCINE FOR PREVENTION OF SARS-CoV-2 VARIANT INFECTION” (priority 2021, published 2024).

Target: T1, fibrinogen (Homo sapiens, UniProt P02675+P02679)
T1 sequence (P02675 31-491): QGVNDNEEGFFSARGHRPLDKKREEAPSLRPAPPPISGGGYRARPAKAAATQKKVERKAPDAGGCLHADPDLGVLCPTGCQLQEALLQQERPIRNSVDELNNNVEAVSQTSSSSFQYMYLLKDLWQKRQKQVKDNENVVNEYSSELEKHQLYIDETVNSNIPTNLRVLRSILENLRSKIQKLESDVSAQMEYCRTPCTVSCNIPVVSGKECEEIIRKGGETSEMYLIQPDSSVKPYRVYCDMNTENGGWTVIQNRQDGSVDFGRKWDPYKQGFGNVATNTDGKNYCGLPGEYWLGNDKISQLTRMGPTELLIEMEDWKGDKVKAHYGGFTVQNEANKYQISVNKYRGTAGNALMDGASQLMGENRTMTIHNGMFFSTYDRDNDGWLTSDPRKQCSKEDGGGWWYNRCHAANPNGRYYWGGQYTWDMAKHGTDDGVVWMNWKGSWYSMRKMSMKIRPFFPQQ
T1 sequence (P02679 27-453): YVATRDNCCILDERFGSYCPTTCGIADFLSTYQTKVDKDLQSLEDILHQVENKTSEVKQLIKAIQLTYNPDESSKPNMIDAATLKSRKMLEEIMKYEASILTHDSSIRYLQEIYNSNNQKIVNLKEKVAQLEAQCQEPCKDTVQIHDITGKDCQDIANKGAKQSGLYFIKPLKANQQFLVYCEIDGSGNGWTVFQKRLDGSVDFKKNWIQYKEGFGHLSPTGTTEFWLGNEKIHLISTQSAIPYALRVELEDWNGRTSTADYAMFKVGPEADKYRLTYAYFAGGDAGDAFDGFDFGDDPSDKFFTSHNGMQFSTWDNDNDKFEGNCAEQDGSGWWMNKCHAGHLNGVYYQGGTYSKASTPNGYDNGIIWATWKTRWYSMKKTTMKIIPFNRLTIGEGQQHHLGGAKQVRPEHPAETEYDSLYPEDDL
T1 sequence (P02671 20-629 partner limits assumed): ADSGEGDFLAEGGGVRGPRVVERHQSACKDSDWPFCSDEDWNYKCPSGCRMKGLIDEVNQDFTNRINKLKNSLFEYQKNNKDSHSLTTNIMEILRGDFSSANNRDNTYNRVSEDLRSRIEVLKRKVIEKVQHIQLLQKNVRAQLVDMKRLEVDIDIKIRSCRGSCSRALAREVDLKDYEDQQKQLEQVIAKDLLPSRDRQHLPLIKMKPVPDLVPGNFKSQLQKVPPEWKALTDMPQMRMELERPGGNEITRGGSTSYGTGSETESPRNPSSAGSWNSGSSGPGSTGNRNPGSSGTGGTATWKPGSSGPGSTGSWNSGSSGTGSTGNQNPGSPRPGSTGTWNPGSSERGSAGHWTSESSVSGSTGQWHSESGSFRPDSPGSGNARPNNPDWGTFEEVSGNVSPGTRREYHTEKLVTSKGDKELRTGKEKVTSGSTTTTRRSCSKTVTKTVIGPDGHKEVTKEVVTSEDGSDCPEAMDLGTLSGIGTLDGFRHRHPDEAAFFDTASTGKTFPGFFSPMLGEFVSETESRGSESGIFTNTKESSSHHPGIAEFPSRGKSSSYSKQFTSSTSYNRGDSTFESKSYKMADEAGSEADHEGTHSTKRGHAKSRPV
Conditions: hydrophobic pocket domains of fibrinogen; cited from earlier work

GPRPXX: short fibrin knob peptide (SEQ ID NO: 3) that recognizes hydrophobic pocket domains of fibrinogen
Kd: 5 to 10 µM
